Assay results taken from patent publication US20240092853A1 (Hoffmann-La Roche, published 2024).

Target: T1, IL2R(bg)-Fc construct (human IL2R beta extracellular domain fused to Fc(knob) with avi tag, human IL2R gamma … (human, biotin on the C-terminal avi tag (co-expressed BirA)))
T1 construct: Knob-into-hole Fc heterodimer; also called IL2Rβγ; human heterodimeric IL-2 receptor beta/gamma
Assay: ELISA: IL2R(bg)-Fc coated ('100nM IL2R coated'), soluble IL2v in bacterial supernatant adjusted to pH 6 or pH 7.4, washing at the same pH, detection with anti-Flag/HRP
Protocol: Bacterial supernatant was harvested by centrifugation and pH was adjusted to either pH 6 or pH 7.4 using Bis-Tris buffer (final concentration: 50 mM BisTris, 140 mM NaCL). Supernatant was incubated in Neutravidin plates that were previously coated with the biotinylated IL2R(bg)-Fc construct and blocked with BSA. While extensive washing after 1 h was performed with Bis-Tris washing buffer at the respective pH 6 or 7.4 (50 mM BisTris, 140 mM NaCL, 0.1% Tween), all subsequent steps were performed at pH 6 to avoid any pH-dependent secondary effects. Binding of IL2v to the IL2R(bg)-Fc construct was detected via Flag tag by using an anti-Flag/HRP secondary antibody.

T1 sequence (chain, as listed by the source limits assumed, chain 1 of 2): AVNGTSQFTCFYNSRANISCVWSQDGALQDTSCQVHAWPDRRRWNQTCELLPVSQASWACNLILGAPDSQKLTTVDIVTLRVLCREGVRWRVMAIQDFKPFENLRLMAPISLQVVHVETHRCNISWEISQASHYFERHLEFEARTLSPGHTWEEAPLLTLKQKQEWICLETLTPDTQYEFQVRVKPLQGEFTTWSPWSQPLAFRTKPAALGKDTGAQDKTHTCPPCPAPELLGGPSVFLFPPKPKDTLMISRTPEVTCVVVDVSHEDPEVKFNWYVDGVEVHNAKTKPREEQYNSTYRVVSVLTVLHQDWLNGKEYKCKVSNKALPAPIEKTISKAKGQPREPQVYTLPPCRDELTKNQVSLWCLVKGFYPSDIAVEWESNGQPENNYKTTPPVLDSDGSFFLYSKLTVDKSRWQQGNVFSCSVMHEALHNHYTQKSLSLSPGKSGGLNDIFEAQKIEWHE
T1 sequence (chain, as listed by the source limits assumed, chain 2 of 2): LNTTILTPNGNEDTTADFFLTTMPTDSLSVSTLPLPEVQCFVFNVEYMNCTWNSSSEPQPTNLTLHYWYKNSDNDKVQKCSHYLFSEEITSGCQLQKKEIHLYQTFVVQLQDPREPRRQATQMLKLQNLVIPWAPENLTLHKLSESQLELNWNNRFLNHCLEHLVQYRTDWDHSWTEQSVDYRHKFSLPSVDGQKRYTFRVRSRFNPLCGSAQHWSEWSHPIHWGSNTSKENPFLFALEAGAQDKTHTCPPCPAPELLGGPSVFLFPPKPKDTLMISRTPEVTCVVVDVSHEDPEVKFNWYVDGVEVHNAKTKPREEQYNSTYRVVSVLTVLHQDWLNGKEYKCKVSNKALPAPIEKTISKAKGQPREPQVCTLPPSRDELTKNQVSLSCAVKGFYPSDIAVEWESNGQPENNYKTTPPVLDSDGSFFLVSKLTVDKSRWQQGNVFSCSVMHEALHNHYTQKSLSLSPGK

B1: IL2v (soluble, from the phagemid, in bacterial supernatant) (ligand)
chain: APASSSTKKTQLQLEHLLLDLQMILNGINNYKNPKLTRMLTAKFAMPKKATELKHLQCLEEELKPLEEVLNGAQSKNFHLRPRDLISNINVIVLELKGSETTFMCEYADETATIVEFLNRWITFAQSIISTLT
notes: human IL-2 with T3A, F42A, Y45A, L72G, C125A; also called parental IL2v; not shown: C-terminal His tag and Flag tag of the phagemid
binding result: binds
